B1: Endothelial transcription factor GATA-2 (Homo sapiens), P23769 (parent)
chain: MEVAPEQPRWMAHPAVLNAQHPDSHHPGLAHNYMEPAQLLPPDEVDVFFNHLDSQGNPYYANPAHARARVSYSPAHARLTGGQMCRPHLLHSPGLPWLDGGKAALSAAAAHHHNPWTVSPFSKTPLHPSAAGGPGGPLSVYPGAGGGSGGGSGSSVASLTPTAAHSGSHLFGFPPTPPKEVSPDPSTTGAASPASSSAGGSAARGEDKDGVKYQVSLTESMKMESGSPLRPGLATMGTQPATHHPIPTYPSYVPAAAHDYSSGLFHPGGFLGGPASSFTPKQRSKARSCSEGRECVNCGATATPLWRRDGTGHYLCNACGLYHKMNGQNRPLIKPKRRLSAARRAGTCCANCQTTTTTLWRRNANGDPVCNACGLYYKLHNVNRPLTMKKEGIQTRNRKMSNKSKKSKKGAECFEELSKCMQEKSSPFSAAALAGHMAPVGHLPPFSHSGHILPTPTPIHPSSSLSFGHPHPSSMVTAMG

Variants of: B1
Conditions: with cbp_human CREBBP

| Variant | effect of a mutation on the interaction |
| --- | --- |
| L359V | increasing interaction |

Source: IntAct's records for PubMed 18250304
